The values that follow come from US7842460.

Data set [1] concerns the target ISG15-PLA2mX fusion (mouse) (UniProt Q9QXX3). Kind of data set: cell-based or functional assay.
Another data set addresses T1, Ubiquitin-PLA2mX fusion (UniProt Q9QXX3).
T1 sequence: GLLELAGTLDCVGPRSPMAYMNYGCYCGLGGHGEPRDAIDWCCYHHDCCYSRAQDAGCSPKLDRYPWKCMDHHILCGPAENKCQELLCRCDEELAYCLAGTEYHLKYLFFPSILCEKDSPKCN

With “UBP43, the ISG15-specific isopeptidase (enzyme)”, the rate of PLA2 activity (fluorescent lipid substrate), extracts of UBP43-transfected against non-transfected HEK293T cells in data set [1] was found to be 4 fold. Consider “core domain of USP2 (shared core enzymatic domain of the spliced USP2 product, either USP2a or USP2b)”, for which, in the data set with Ubiquitin-PLA2mX fusion, the Ratio of PLA2 activity, fusion with isopeptidase over fusion without was 9.37 and the “cleavage of the fusion by SDS-PAGE (10 ug fusion, 3 ug core domain of USP2)” value is “complete cleavage of the fused Ub-PLA2mX was seen”.
